Molecular target: the molecule itself
Assay: native MS; rBos d 2 in 10 mM ammonium acetate, pH 6.9; protein (monomer) concentration 0-90 μM; monomer-dimer ratio from ion intensities, fit of free monomer against total protein; dimer to monomers

B1: recombinant bovine dander lipocalin allergen Bos d 2 (natural protein, bovine (cow), UniProt Q28133 17-172, looked up)
chain: QETPAEIDPSKIPGEWRIIYAAADNKDKIVEGGPLRNYYRRIECINDCESLSITFYLKDQGTCLLLTEVAKRQEGYVYVLEFYGTNTLEVIHVSENMLVTYVENYDGERITKMTEGLAKGTSFTPEELEKYQQLNSERGVPNENIENLIKTDNCPP
modifications: a substantial amount of the molecules contained a pyrrolidone carboxylic acid (PCA) formed by cyclization of the N-terminal glutamine; partly oxidized, probably at a single methionine; two disulfide bonds
notes: Bos d 2, bovine (cow) dander lipocalin allergen; also called rBos d 2
Kd: 340 ± 20 µM | stoichiometry N: 2

Source: publication PMC4561914 (Scientific Reports, 2015)
